Results: patent US20090162363A1 (published 2009)

What was measured:
[1] = target: T1, recombinant human PEDF protein (pigment epithelium derived factor) (human, UniProt P36955 20-418); assay: SPR (BIAcore), PEDF immobilized on CM5 chip; PBS with 0.1% NP-40
T1 chain: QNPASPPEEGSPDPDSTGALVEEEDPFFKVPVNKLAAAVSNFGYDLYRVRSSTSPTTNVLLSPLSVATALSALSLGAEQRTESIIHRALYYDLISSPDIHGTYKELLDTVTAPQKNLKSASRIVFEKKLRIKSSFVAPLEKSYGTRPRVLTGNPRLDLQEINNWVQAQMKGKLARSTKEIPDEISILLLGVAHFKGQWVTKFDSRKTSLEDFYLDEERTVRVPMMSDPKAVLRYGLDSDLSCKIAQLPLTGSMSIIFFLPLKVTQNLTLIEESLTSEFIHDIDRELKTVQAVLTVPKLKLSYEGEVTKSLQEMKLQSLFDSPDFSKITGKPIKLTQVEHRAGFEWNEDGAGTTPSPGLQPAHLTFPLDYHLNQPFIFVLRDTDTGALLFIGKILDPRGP

[2] = target: T1, recombinant human PEDF protein (pigment …); assay: as above

B1: R1N (recombinant human PEDF-R1 polypeptide with N-terminal 6xHis tag, from pEXP1-R1N) (receptor)
chain: MFPREKTWNISFAGCGFLGVYYVGVASCLREHAPFLVANATHIYGASAGALTATALVTGVCLGEAGAKFIEVSKEARKRFLGPLHPSFNLVKIIRSFLLKVLPADSHEHASGRLGISLTRVSDGENVIISHFNSKDELIQANVCSGFIPVYCGLIPPSLQGVRYVDGGISDNLPLYELKNTITVSPFSGESDICPQDSSTNIHELRVTNTSIQFNLRNLYRLSKALFPPEPLVLREMCKQGYRDGLRFLQRNGLLNRPNPLLALPPARPHGPEDKDQAVESAQAEDYSQLPGEDHILEHLPARLNEALLEACVEPTDLLTTLSNMLPVRLATAMMVPYTLPLESALSFTIRLLEWLPDVPEDIRWMKEQTGSICQYLVMRAKRKLGRHLPSRLPEQVELRRVQSLPSVPLSCAAYREALPGWMRNNLSLGDALAKWEECQRQLLLGLFCTNVAFPPEALRMRAPADPAPAPADPASPQHQLAGPAPLLSTPAPEARPVIGALGL
[1]
  Ka: 4.32e+08 M⁻¹
[2]
  Kd: 2.31 nM
